Reference: patent US20260166139A1 (AKESO BIOPHARMA, published 2026)

Legend:
human CTLA4 = target: T1, human CTLA4 (human, UniProt P16410 36-161, limits assumed); test: ELISA on coated CTLA4, source Human
T1 construct: also called human CTLA4 antigen; CTLA4 protein
T1 sequence (looked up): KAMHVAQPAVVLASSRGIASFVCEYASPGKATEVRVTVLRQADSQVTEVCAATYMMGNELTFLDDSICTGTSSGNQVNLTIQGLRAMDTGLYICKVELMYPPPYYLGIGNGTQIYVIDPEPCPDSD
Method: (§1) The ELISA plate was coated with CTLA4 at 4° C. over night. […] The enzyme conjugated secondary antibody was added for incubation for 30 min. Then, the absorbance at 450 nm was determined on an ELISA plate reader.

[1] = target: T2, CTLA4 antigen (NCBI Gene ID: 1493) obtained by TEV protease cleavage of CTLA4-mFc (Homo sapiens (Human), UniProt P16410 37-161); test: BLI (Fortebio), antibody on AR2G sensor, CTLA4 in solution
T2 construct: also called the antigen CTLA4
T2 sequence: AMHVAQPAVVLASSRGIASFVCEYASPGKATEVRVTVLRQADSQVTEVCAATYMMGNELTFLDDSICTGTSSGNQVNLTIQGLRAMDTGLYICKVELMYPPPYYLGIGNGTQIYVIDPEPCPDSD
Method: 2. […] After equilibration in PBST, the CTLA4 antigen was added for binding. […] Dissociation occurred in PBST.

[2] = target: T3, CTLA4 antigen on the surface of 293F-CTLA4 host cells (UniProt P16410 36-223, limits assumed); test: flow cytometry, 293F-CTLA4 cells; antibody 1 nM
T3 construct: whole, on cells
T3 sequence (looked up): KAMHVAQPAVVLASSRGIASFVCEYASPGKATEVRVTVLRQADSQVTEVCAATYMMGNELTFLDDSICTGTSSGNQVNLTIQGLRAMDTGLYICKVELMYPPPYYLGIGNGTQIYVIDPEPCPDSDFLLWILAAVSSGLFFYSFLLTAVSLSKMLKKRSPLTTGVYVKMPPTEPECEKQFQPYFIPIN
Method: (§2) After addition of 300 μL PBS, the fluorescent signal was detected using the FITC channel on the flow cytometer.

[3] = target: T3, CTLA4 antigen on the surface of …; test: flow cytometry, 293F-CTLA4 cells
Method: as §2

[4] = target: T3, CTLA4 antigen on the surface of …; test: flow cytometry, 293F-CTLA4 cells; antibody 0.001 nM
Method: as §2

[5] = target: T3, CTLA4 antigen on the surface of …; test: flow cytometry, 293F-CTLA4 cells; antibody 0.01 nM
Method: as §2

[6] = target: T3, CTLA4 antigen on the surface of …; test: flow cytometry, 293F-CTLA4 cells; antibody 25 nM
Method: as §2

monkey CTLA4-hFc = target: T4, monkey CTLA4-hFc (monkey); test: ELISA on coated CTLA4, source Monkey
T4 construct: also called monkey CTLA4 antigen
Method: as §1

[7] = target: T3, CTLA4 antigen on the surface of …; test: flow cytometry, 293F-CTLA4 cells; antibody 0.1 nM
Method: as §2

[8] = target: T3, CTLA4 antigen on the surface of …; test: flow cytometry, 293F-CTLA4 cells; antibody 10 nM
Method: as §2

[9] = target: T3, CTLA4 antigen on the surface of …; test: flow cytometry, 293F-CTLA4 cells; antibody 5 nM
Method: as §2

CTLA4-mFc [10] = target: T5, CTLA4-mFc; test: competitive ELISA, competitor B7-1
T5 construct: also called CTLA4ECD-mFc fusion protein; CTLA4 antigen
Method: (§3) After incubation at 37° C. for 40 minutes, the enzyme conjugated secondary antibody was added. After incubation at 37° C. for 30 minutes, the absorbance at 450 nm was detected on an ELISA plate reader.
Target sequence in this assay (chain, as listed by the source limits assumed): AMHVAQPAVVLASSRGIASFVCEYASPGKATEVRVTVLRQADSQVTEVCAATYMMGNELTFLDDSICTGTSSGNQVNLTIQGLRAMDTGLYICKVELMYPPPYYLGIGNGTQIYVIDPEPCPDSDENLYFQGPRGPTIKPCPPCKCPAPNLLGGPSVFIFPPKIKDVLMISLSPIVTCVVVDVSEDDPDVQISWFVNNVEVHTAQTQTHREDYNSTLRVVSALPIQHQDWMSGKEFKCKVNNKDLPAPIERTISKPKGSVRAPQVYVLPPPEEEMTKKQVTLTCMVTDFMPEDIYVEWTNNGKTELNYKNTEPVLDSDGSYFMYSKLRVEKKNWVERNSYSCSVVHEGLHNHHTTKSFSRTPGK

CTLA4-mFc [11] = target: T5, CTLA4-mFc; test: competitive ELISA, competitor B7-2
Method: as §3
Target sequence in this assay (chain, as listed by the source limits assumed): as above

CTLA4-mFc [12] = target: T5, CTLA4-mFc; test: competitive ELISA, competitor B7-1; third of three tests
Method: as §3

CTLA4-mFc [13] = target: T5, CTLA4-mFc; test: competitive ELISA, competitor B7-2; second of three tests
Method: as §3

CTLA4-mFc [14] = target: T5, CTLA4-mFc; test: competitive ELISA, competitor B7-2; first of three tests
Method: as §3

CTLA4-mFc [15] = target: T5, CTLA4-mFc; test: competitive ELISA, competitor B7-1; first of three tests; competitor B7-1; first of three tests, the run with controls 10D1 5.15 nM and 11.2.1 1.073 nM
Method: as §3

CTLA4-mFc [16] = target: T5, CTLA4-mFc; test: competitive ELISA, CTLA4-mFc coated, competitor B7/2-His; antibody 1 µg/ml
Method: as §3

CTLA4-mFc [17] = target: T5, CTLA4-mFc; test: competitive ELISA, competitor B7-2; third of three tests
Method: as §3

CTLA4-mFc [18] = target: T5, CTLA4-mFc; test: competitive ELISA, competitor B7-1; second of three tests
Method: as §3

B1: humanized antibody 8D2H2L15 (antibody, V domains shown)
VH: EVQLVESGGGLVQPGGSMRLSCAASGFTFSDNWMNWVRQAPGKGLEWLAQIRNKPYNYETYYSASVKGRFTISRDDSKNSVYLQMNSLKTEDTGVYYCTAQFAYWGQGTLVTVSS
VL: DIQMTQSPSSLSASVGDRVTITCRTSENIYGGLNWYQRKPGKSPKLLIYGATNLASGVSSRFSGSGSGTDYTLTISSLQPEDVATYYCQNVLSRHPGFGSGTKLEIK
- EC50 (human CTLA4): 0.042 nM
- Kd [1]: 1.02 nM
- koff [1]: 0.000465 s⁻¹
- kon [1]: 454000 M⁻¹ s⁻¹

B2: humanized antibody 8D2H2L17 (antibody, V domains shown)
VH: EVQLVESGGGLVQPGGSMRLSCAASGFTFSDNWMNWVRQAPGKGLEWLAQIRNKPYNYETYYSASVKGRFTISRDDSKNSVYLQMNSLKTEDTGVYYCTAQFAYWGQGTLVTVSS
VL: DIQMTQSPSSLSASVGDRVTITCRTSENIYGGLNWYQRKPGKSPKLLIYGATNLASGVSSRFSGSGSGTDYTLTISSLQPEDVATYYCQNVLSSRPGFGSGTKLEIK
- EC50 (human CTLA4): 0.047 nM
- Kd [1]: 0.766 nM
- koff [1]: 0.000352 s⁻¹
- kon [1]: 459000 M⁻¹ s⁻¹

B3: humanized antibody 8D2H3L3 (antibody, V domains shown)
VH: EVQLVESGGGLVQPGGSLRLSCAASGFTFSDNWMNWVRQAPGKGLEWVAQIRNKPYNYETEYAASVKGRFTISRDDSKNSAYLQMNSLKTEDTAVYYCTAQFAYWGQGTLVTVSS
VL: DIQMTQSPSSLSASVGDRVTITCRASENIYGGLNWYQQKPGKAPKLLIYGATSLASGVPSRFSGSGSGTDYTLTISSLQPEDFATYYCQNVLRSPFTFGSGTKLEIK
- fluorescence intensity [2]: 623
- EC50 [3]: 4.54 nM
- fluorescence intensity [4]: 10.8
- fluorescence intensity [5]: 25.1
- fluorescence intensity [6]: 1090
- EC50 (human CTLA4): 0.129 nM
- EC50 (monkey CTLA4-hFc): 0.385 nM
- fluorescence intensity [7]: 108
- fluorescence intensity [8]: 1080
- Kd [1]: 1.05 nM
- koff [1]: 0.000327 s⁻¹
- kon [1]: 312000 M⁻¹ s⁻¹
- fluorescence intensity [9]: 971

B4: 8D2 recombinant antibody, 8D2(Re) (antibody, V domains shown)
VH: EVKLDETGGGLVQPGRPMKLSCVASGFTFSDNWMNWVRQSPEKGLEWLAQIRNKPYNYETYYSDSVKGRFTISRDDSKSSVYLQMNNLRGEDMGIYYCTAQFAYWGQGTLVTVSA
VL: DIQMTQSPASLSASVGETVTITCGTSENIYGGLNWYQRKQGKSPQLLIFGATNLADGMSSRFSGSGSGRQYSLKISSLHPDDVATYYCQNVLRSPFTFGSGTKLEI
- EC50 (CTLA4-mFc [10]): 0.514 nM
- EC50 (CTLA4-mFc [11]): 0.153 nM

B5: humanized antibody 8D2H2L2 (antibody, V domains shown)
VH: EVQLVESGGGLVQPGGSMRLSCAASGFTFSDNWMNWVRQAPGKGLEWLAQIRNKPYNYETYYSASVKGRFTISRDDSKNSVYLQMNSLKTEDTGVYYCTAQFAYWGQGTLVTVSS
VL: DIQMTQSPSSLSASVGDRVTITCRTSENIYGGLNWYQRKPGKSPKLLIYGATNLASGVSSRFSGSGSGTDYTLTISSLQPEDVATYYCQNVLRSPFTFGSGTKLEIK
notes: also called 8D2H2L2(20150327); 8D2H2L2(20140422)
- EC50 (CTLA4-mFc [12]): 3.12 nM
- EC50 (CTLA4-mFc [13]): 0.368 nM
- EC50 (CTLA4-mFc [14]): 1.64 nM
- EC50 (CTLA4-mFc [15]): 5.93 nM
- absorbance at 450 nm (CTLA4-mFc [16]): 0.05
- EC50 (CTLA4-mFc [17]): 0.301 nM
- EC50 (CTLA4-mFc [18]): 2.97 nM

B6: humanized antibody 8D2H1L1 (antibody, V domains shown)
VH: EVQLVESGGGLVQPGGSMRLSCAASGFTFSDNWMNWVRQAPGKGLEWLAQIRNKPYNYETYYSDSVKGRFTISRDDSKNSVYLQMNSLKTEDTGVYYCTAQFAYWGQGTLVTVSS
VL: DIQMTQSPSSLSASVGDRVTITCRTSENIYGGLNWYQRKQGKSPKLLIYGATNLASGMSSRFSGSGSGTDYTLKISSLHPDDVATYYCQNVLRSPFTFGSGTKLEIK
- EC50 (CTLA4-mFc [10]): 2.48 nM
- EC50 (CTLA4-mFc [11]): 0.178 nM

B7: humanized antibody 8D2H3L3 (antibody, V domains shown)
VH: EVQLVESGGGLVQPGGSLRLSCAASGFTFSDNWMNWVRQAPGKGLEWVAQIRNKPYNYETEYAASVKGRFTISRDDSKNSAYLQMNSLKTEDTAVYYCTAQFAYWGQGTLVTVSS
VL: DIQMTQSPSSLSASVGDRVTITCRASENIYGGLNWYQQKPGKAPKLLIYGATSLASGVPSRFSGSGSGTDYTLTISSLQPEDFATYYCQNVLRSPFTFGSGTKLEIK
- EC50 (CTLA4-mFc [10]): 2.14 nM
- EC50 (CTLA4-mFc [11]): 0.167 nM

B8: monoclonal antibody 8D2 (antibody, V domains shown)
VH: EVKLDETGGGLVQPGRPMKLSCVASGFTFSDNWMNWVRQSPEKGLEWLAQIRNKPYNYETYYSDSVKGRFTISRDDSKSSVYLQMNNLRGEDMGIYYCTAQFAYWGQGTLVTVSA
VL: DIQMTQSPASLSASVGETVTITCGTSENIYGGLNWYQRKQGKSPQLLIFGATNLADGMSSRFSGSGSGRQYSLKISSLHPDDVATYYCQNVLRSPFTFGSGTKLEI
notes: Murine antibody purified from hybridoma supernatant; also called mAb 8D2; antibody secreted by the CTLA4-8D2 hybridoma cell line LT001
- fluorescence intensity [2]: 25.5
- EC50 [3]: 3.84 nM
- fluorescence intensity [4]: 7.6
- fluorescence intensity [5]: 7.7
- fluorescence intensity [6]: 722
- fluorescence intensity [7]: 9.1
- fluorescence intensity [8]: 639
- Kd [1]: 0.166 nM
- koff [1]: 2.36e-05 s⁻¹
- kon [1]: 142000 M⁻¹ s⁻¹
- fluorescence intensity [9]: 183

B9: 8D2 recombinant antibody, 8D2(Re) (antibody, V domains shown)
VH: EVKLDETGGGLVQPGRPMKLSCVASGFTFSDNWMNWVRQSPEKGLEWLAQIRNKPYNYETYYSDSVKGRFTISRDDSKSSVYLQMNNLRGEDMGIYYCTAQFAYWGQGTLVTVSA
VL: DIQMTQSPASLSASVGETVTITCGTSENIYGGLNWYQRKQGKSPQLLIFGATNLADGMSSRFSGSGSGRQYSLKISSLHPDDVATYYCQNVLRSPFTFGSGTKLEI
- fluorescence intensity [2]: 321
- EC50 [3]: 1.38 nM
- fluorescence intensity [4]: 24.6
- fluorescence intensity [5]: 24.7
- fluorescence intensity [6]: 873
- fluorescence intensity [7]: 66.7
- fluorescence intensity [8]: 898
- fluorescence intensity [9]: 714
